Consider 13 substances from US20060115876A1.

Assay [1] deals with von Willebrand factor (vWF) (UniProt P04275). Nature of the assay: vWF binding ELISA divided by total antigen ELISA, relative to BDD.
Assay [2] shares this target. Kind of assay: vWF binding ELISA value divided by total antigen ELISA value.
For assay [3] the target is unchanged. Nature of the assay: vWF binding ELISA (FVIII bound to vWf in severe hemophilic plasma, captured on anti-vWf mAb) divided by total antigen ELISA, relative to BDD.
For assay [4] the target is unchanged. Nature of the assay: vWF binding ELISA divided by total antigen ELISA.
The target is the same in assay [5]. Nature of the assay: vWF binding ELISA, FVIII bound to vWf in severe hemophilic plasma.
The target is the same in assay [6]. Nature of the assay: vWF binding ELISA divided by total antigen ELISA, relative to starting KG-2.

B domain deleted FVIII (BDD), sequence (P00451 other isoform, or with tags, fused parts or gaps limits assumed): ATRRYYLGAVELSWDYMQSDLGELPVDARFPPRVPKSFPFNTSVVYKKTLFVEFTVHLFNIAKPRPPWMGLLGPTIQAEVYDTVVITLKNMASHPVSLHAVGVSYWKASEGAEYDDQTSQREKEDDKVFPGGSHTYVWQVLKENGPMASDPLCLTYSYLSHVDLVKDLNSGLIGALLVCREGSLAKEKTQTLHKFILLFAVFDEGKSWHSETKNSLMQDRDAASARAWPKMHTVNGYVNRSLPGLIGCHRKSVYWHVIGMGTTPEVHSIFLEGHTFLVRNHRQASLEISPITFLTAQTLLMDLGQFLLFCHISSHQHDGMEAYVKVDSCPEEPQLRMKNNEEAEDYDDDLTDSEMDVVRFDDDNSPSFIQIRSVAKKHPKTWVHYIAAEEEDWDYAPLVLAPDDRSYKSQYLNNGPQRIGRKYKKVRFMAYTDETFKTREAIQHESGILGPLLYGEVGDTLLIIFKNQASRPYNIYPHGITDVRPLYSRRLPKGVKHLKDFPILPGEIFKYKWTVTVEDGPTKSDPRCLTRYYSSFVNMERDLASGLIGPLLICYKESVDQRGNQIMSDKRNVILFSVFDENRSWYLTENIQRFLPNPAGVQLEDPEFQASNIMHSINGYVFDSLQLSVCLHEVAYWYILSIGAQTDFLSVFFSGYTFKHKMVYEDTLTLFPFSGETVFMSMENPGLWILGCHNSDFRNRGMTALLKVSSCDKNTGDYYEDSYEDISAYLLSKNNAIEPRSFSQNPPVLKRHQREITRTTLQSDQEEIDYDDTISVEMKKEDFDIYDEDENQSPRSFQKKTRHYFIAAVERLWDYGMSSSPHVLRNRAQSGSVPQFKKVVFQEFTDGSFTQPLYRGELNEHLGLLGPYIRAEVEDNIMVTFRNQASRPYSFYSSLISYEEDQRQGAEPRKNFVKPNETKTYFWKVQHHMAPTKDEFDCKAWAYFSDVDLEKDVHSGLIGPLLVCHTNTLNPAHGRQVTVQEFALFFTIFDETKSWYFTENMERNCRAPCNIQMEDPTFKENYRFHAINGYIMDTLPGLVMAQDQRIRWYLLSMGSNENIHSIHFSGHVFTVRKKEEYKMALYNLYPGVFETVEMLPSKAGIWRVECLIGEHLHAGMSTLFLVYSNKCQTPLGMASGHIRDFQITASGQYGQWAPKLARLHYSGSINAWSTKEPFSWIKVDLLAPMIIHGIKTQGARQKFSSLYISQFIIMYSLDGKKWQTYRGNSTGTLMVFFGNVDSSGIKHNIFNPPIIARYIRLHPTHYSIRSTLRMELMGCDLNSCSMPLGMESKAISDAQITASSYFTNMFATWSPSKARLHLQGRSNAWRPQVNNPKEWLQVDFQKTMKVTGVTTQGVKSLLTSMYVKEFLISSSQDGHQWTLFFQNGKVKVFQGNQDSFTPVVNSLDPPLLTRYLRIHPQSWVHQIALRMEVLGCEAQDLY
PEG2 red (PEG2 mutein treated with reductant followed by removal of reductant), sequence (P00451 other isoform, or with tags, fused parts or gaps mutant): as the sequence (P00451 other isoform, or with tags, fused parts or gaps limits assumed) above, with L491C counted along it

On to “PEG2-5 kD PEG (L491C BDD FVIII PEGylated with 5 kD PEG-maleimide) (from UniProt P00451 20-2351)”, for which the percent specific activity vWF/TAE relative to BDD in assay [1] is 125%. For “PEG2 mutein (L491C BDD FVIII) (from UniProt P00451 20-2351)”, in assay [1], the percent specific activity vWF/TAE relative to BDD is 138%. As to “B domain deleted FVIII (BDD) (from UniProt P00451 20-2351)”, the vWF/TAE (specific vWF binding activity) in assay [2] worked out at 1 vWF/TAE. Moreover, in assay [3], the percent specific activity vWF/TAE relative to BDD was 100%. With “KG-2-30 kD PEG (wildtype full length FVIII PEGylated with 30 kD PEG) (from UniProt P00451 20-2351)”, the vWF/TAE (ratio (vWF ELISA ug/mL / TAE ug/mL)) in assay [4] worked out at 0.32. Besides, the vWF ELISA (FVIII bound to vWf) in assay [5] turned out to be 0.19 µg/mL. Besides, in assay [6], the % Start (vWF/TAE) was found to be 100%. For the substance “PEG2-12 kD PEG (L491C BDD FVIII PEGylated with 12 kD PEG-maleimide) (from UniProt P00451 20-2351)”, in assay [1], the percent specific activity vWF/TAE relative to BDD was determined as 71%.

As to “PEG2-33 kD PEG (L491C BDD FVIII PEGylated with 33 kD PEG-maleimide) (from UniProt P00451 20-2351)”, in assay [1], the percent specific activity vWF/TAE relative to BDD stood at 59%. With “wildtype full length FVIII (KG-2) (from UniProt P00451 20-2351)”, in assay [4], the vWF/TAE (ratio (vWF ELISA ug/mL / TAE ug/mL)) came to 0.32. In assay [5], this substance had a vWF ELISA (FVIII bound to vWf) of 0.42 µg/mL. The % Start (vWF/TAE) in assay [6] came out at 100%. Consider “PEG6-33 kD PEG (K1808C BDD FVIII PEGylated with 33 kD PEG-maleimide) (from UniProt P00451 20-2351)”, for which, in assay [1], the percent specific activity vWF/TAE relative to BDD worked out at 90%. On the same count and under the same terms, under “PEG2-22 kD PEG (L491C BDD FVIII PEGylated with 22 kD PEG-maleimide) (from UniProt P00451 20-2351)” stands 87%; under “PEG6 mutein (K1808C BDD FVIII) (from UniProt P00451 20-2351)”, 100%; under “PEG2-43 kD PEG (L491C BDD FVIII PEGylated with 43 kD PEG-maleimide) (from UniProt P00451 20-2351)”, 57%.

Consider “KG-2-22 kD PEG (wildtype full length FVIII PEGylated with 22 kD PEG) (from UniProt P00451 20-2351)”, for which the vWF/TAE (ratio (vWF ELISA ug/mL / TAE ug/mL)) in assay [4] worked out at 0.3. This substance also returned a vWF ELISA (FVIII bound to vWf) in assay [5] of 0.19 µg/mL. Besides, in assay [6], the % Start (vWF/TAE) was found to be 94%. For the substance “PEG2 red (PEG2 mutein treated with reductant followed by removal of reductant) (from UniProt P00451 20-2351)”, the percent specific activity vWF/TAE relative to BDD in assay [1] was 98%.
